Key:
[1] = target: T1, H1 hemagglutinin (A/Brisbane/59/07) (Influenza A virus …); assay: cell-based or functional assay
[2] = target: T1, H1 hemagglutinin (A/Brisbane/59/07)
[3] = target: T2, influenza B hemagglutinin (B/Brisbane/60/08) (influenza B virus (B/Brisbane/60/08), N-linked glycans at N301 and N330 (HA1)); assay: crystal structure
T2 chain 1: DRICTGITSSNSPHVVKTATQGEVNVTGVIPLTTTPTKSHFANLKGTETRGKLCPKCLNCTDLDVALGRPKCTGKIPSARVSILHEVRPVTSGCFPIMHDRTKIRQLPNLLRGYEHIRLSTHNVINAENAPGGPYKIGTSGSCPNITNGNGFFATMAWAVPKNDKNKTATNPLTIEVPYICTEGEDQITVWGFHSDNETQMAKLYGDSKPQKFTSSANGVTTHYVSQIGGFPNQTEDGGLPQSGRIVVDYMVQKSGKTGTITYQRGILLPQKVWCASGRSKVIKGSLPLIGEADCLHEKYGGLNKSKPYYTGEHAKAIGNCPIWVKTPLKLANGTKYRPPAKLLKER
T2 chain 2: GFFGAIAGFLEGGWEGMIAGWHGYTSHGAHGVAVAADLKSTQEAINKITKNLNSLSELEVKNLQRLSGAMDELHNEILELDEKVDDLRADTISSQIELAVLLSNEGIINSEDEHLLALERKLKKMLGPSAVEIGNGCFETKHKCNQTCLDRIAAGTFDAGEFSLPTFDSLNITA

[4] = target: T3, H1 hemagglutinin (A/Solomon Islands/3/06) (influenza A virus (A/Solomon …)); assay: crystal structure
T3 chain 1: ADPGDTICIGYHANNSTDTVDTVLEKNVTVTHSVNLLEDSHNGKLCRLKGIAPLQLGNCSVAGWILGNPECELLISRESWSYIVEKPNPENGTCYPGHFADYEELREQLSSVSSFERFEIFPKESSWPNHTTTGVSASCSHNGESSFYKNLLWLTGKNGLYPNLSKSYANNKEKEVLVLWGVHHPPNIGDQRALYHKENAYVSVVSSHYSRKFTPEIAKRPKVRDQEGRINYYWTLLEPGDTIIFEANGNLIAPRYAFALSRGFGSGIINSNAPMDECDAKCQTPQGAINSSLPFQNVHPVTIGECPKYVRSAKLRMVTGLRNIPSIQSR
T3 chain 2: not shown

B1: single-domain antibody SD36 (VHH)
VHH: EVQLVESGGGLVQAGGSLKLSCAASGRTYAMGWFRQAPGKEREFVAHINALGTRTYYSDSVKGRFTISRDNAKNTEYLEMNNLKPEDTAVYYCTAQGQWRAAPVAVAAEYEFWGQGTQVTVSS
in vitro neutralisation of the corresponding virus (A/Brisbane/59/07), IC50 [1]: > 1000 nM
Kd [2]: 290 nM

B2: single-domain antibody SD83 (VHH)
VHH: EVQLVESGGGLVQPGGSLRLSCAATGFTLENKAIGWFRQTPGSEREGVLCISKSGSWTYYTDSMRGRFTISRDNAENTVYLQMDSLKPEDTAVYYCATTTAGGGLCWDGTTFSRLASSWGQGTQVTVSS
stoichiometry N [3]: 3 sdAbs per HA trimer

B3: single-domain antibody SD38 (VHH)
VHH: EVQLVESGGGLVQPGGSLRLSCAVSISIFDIYAMDWYRQAPGKQRDLVATSFRDGSTNYADSVKGRFTISRDNAKNTLYLQMNSLKPEDTAVYLCHVSLYRDPLGVAGGMGVYWGKGALVTVSS
stoichiometry N [4]: 3 sdAbs per HA trimer

Reference: paper PMC6241527 (Science (New York, N.Y.), 2018)
